T1: retinol dehydratase (Spodoptera frugiperda, UniProt Q26490)
T1 sequence (Q26490 1-351): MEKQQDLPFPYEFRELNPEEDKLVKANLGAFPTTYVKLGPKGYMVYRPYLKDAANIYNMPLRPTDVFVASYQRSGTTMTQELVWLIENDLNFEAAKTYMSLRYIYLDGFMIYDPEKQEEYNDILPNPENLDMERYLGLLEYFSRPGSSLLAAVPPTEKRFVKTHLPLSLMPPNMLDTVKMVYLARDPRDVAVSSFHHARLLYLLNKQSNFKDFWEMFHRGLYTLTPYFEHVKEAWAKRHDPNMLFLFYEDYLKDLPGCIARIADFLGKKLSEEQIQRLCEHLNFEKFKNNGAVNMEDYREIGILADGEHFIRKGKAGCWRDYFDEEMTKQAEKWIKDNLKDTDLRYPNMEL

B1: EGF: epidermal growth factor, purchased (protein, UniProt P01133 23-1207, looked up)
Pro-epidermal growth factor: PQHWSCPEGTLAGNGNSTCVGPAPFLIFSHGNSIFRIDTEGTNYEQLVVDAGVSVIMDFHYNEKRIYWVDLERQLLQRVFLNGSRQERVCNIEKNVSGMAINWINEEVIWSNQQEGIITVTDMKGNNSHILLSALKYPANVAVDPVERFIFWSSEVAGSLYRADLDGVGVKALLETSEKITAVSLDVLDKRLFWIQYNREGSNSLICSCDYDGGSVHISKHPTQHNLFAMSLFGDRIFYSTWKMKTIWIANKHTGKDMVRINLHSSFVPLGELKVVHPLAQPKAEDDTWEPEQKLCKLRKGNCSSTVCGQDLQSHLCMCAEGYALSRDRKYCEDVNECAFWNHGCTLGCKNTPGSYYCTCPVGFVLLPDGKRCHQLVSCPRNVSECSHDCVLTSEGPLCFCPEGSVLERDGKTCSGCSSPDNGGCSQLCVPLSPVSWECDCFPGYDLQLDEKSCAASGPQPFLLFANSQDIRHMHFDGTDYGTLLSQQMGMVYALDHDPVENKIYFAHTALKWIERANMDGSQRERLIEEGVDVPEGLAVDWIGRRFYWTDRGKSLIGRSDLNGKRSKIITKENISQPRGIAVHPMAKRLFWTDTGINPRIESSSLQGLGRLVIASSDLIWPSGITIDFLTDKLYWCDAKQSVIEMANLDGSKRRRLTQNDVGHPFAVAVFEDYVWFSDWAMPSVMRVNKRTGKDRVRLQGSMLKPSSLVVVHPLAKPGADPCLYQNGGCEHICKKRLGTAWCSCREGFMKASDGKTCLALDGHQLLAGGEVDLKNQVTPLDILSKTRVSEDNITESQHMLVAEIMVSDQDDCAPVGCSMYARCISEGEDATCQCLKGFAGDGKLCSDIDECEMGVPVCPPASSKCINTEGGYVCRCSEGYQGDGIHCLDIDECQLGEHSCGENASCTNTEGGYTCMCAGRLSEPGLICPDSTPPPHLREDDHHYSVRNSDSECPLSHDGYCLHDGVCMYIEALDKYACNCVVGYIGERCQYRDLKWWELRHAGHGQQQKVIVVAVCVVVLVMLLLLSLWGAHYYRTQKLLSKNPKNPYEESSRDVRSRRPADTEDGMSSCPQPWFVVIKEHQDLKNGGQPVAGEDGQAADGSMQPTSWRQEPQLCGMGTEQGCWIPVSSDKGSCPQVMERSFHMPSYGTQTLEGGVEKPHSLLSANPLWQQRALDPPHQMELTQ
modifications: Pro-epidermal growth factor
notes: epidermal growth factor, purchased
B2: Recombinant retinol dehydratase: 352 amino acid, 41.5 kDa enzyme of Sf-21 cells, expressed in bacteria with HisTag, SEQ. ID. No. 2 (protein)
chain: MEKQQDLPFPYEFRELNPEDKLVKANLGAFPTTYVKLGPKGYMVYRPYLKDAANIYNMPLRPTDVFVASYQRSGTTMTQELVWLIENDLNFEAAKTYMSLRYIYLDGFMIYDPEKQEEYNDILPNPENLDMERYLGLLEYFSRPGSSLLAAVPPTEKRFVKTHLPLSLMPPNMLDTVKMVYLARDPRDVAVSSFHHARLLYLLNKQSNFKDFWEMFHRGLYTLTPYFEHVKEAWAKRHDPNMLFLFYEDYLKDLPGCIARIADFLGKKLSEEQIQRLCEHLNFEKFKNNGAVNMEDYREIGILADGEHFIRKGKAGCWRDYFDEEMTKQAEKWIKDNLKDTDLRYPNMEL
modifications: His tag

Key:
[1] = test system: NIH 3T3 cells; assay: Activation of resting serum-starved NIH 3T3 cells ([3H]thymidine incorporation); type: cell-based
Description: FIGS. 6A and 6B show the activation of resting NIH 3T3 cells. In FIG. 6(a), one to four day serum-starved cells activated by serum, retinol, 14-HRR, and the peptide growth factors epidermal growth factor ("EGF") and platelet derived growth factor ("PDGF") are shown. […] NIH 3T3 cells were grown to confluence in Dulbecco's minimal essential medium ("DMEM") containing 10% fetal calf serum in 96-well microliter plates. All media were supplemented with 2 mM glutamine and 100 U/ml of penicillin/streptomycin. Cells were washed once with phosphate-buffered saline solution and incubated for one to four days in 200 μl/well of DMEM media/0.1% fetal calf serum ("starvation media"). On the indicated day, starvation media was replaced with 200 μl/well of insulin, transferrin, linoleic acid, bovine serum albumin ("ITLB") media, with or without fetal calf serum, retinoids, or peptide growth factors at the indicated concentrations. ITLB media is RPMI media (Gibco BRL, Grand Island, N.Y.) containing […] bovine serum albumin (1.2 mg/ml), linoleic acid (10^-6 M), bovine insulin (5 μg/ml), and transferrin (5 μg/ml). [^3 H]thymidine (1.2 μCi per well) was added at the beginning of the experiment, and the thymidine incorporation was determined after 24 h. […]
Cells starved for 4 days in DMEM/0.1% fetal calf serum were activated with 5% fetal calf serum, 2 μM retinol, or 2 μM 14-HRR, and the cumulative thymidine incorporation was determined at the indicated time points. Δcpm corresponds to the increase in [^3 H]thymidine incorporation in the two hour period before the time point shown. […]
Cells starved for 4 days in DMEM/0.1% fetal calf serum were activated with 5% fetal calf serum, 2 μM retinol, or 2 μM 14-HRR. […] The cumulative [^3 H]thymidine incorporation was determined after 24 hours. […]
Confluent NIH 3T3 cells were starved for 1 to 4 days in medium containing 0.1% serum. […] Activation was quantitated by measuring the [^3 H] thymidine incorporated into newly synthesized DNA during the subsequent 24 hours (FIG. 6A). […]

[2] = biological target: T1, retinol dehydratase; assay: Retinol dehydratase assay ([3H]-retinol to [3H]-AR, HPLC radiomatic detection); kinetic studies; type: biochemical; details: bacterially expressed recombinant enzyme
Description: 20-50 μl aliquots of supernatant/column fractions were incubated with 1 μCi of [^3 H]-retinol and 20 μl of high speed supernatant from sonicated Sf-9 cells in 200 μl assay buffer (20 mM Tris.Cl pH 7.5, 150 mM NaCl, I mM MgCI2) for 15-60 minutes at 24° C. […] Samples were delipidated and [^3 H]-AR production quantified by a liquid scintillation radiomatic detector in series with HPLC gradient elution (20 mM Tris pH 7.4/methanol/chloroform) from a C-18 Reverse Phase 201TP54 column (Vydac, Separations Group, Hesperia, Calif.) as described by McClean et al., Clin. Chem., 28:693-96 (1982) and Derguini et al., Angew. Che. Int. Ed. Engl., 33:1839-41 (1994), which are hereby incorporated by reference.
Kinetic studies were performed with native retinol dehydratase (0.1 μg/assay) and ^3 H-retinol in the presence of constant substrate carrier protein concentrations, either delipidated BSA or recombinant cellular retinol binding protein ("CRBP"). The initial rate of AR synthesis at different substrate concentrations was determined by radiomatic detection of ^3 H-AR after HPLC separation.
Carrier protein for retinol (delipidated bovine serum albumin or recombinant human CRBP) was added to reduce nonspecific binding and micelle formation.

[3] = biological target: T1, retinol dehydratase; assay: Fluorimetric titration of recombinant retinol dehydratase with retinol (direct binding, no cofactor); details: recombinant enzyme; for number of (high affinity) binding sites per molecule: retinol titration
Description: Binding was monitored by following the fluorescence enhancement of retinol (excitation--330 nm; emission--480 nm, open circles). The fluorescence contribution of free retinol was determined by titration with retinol in the absence of protein (open squares), analyzed by linear regression analysis (dashed line) and subtracted from the titration data to give the corrected titration binding curve (closed circles). The data were fitted (solid line) using an equation derived from simple binding theory.
Retinol is an efficient fluorophore and its interactions with proteins are often accompanied by a marked increase in its fluorescence. This phenomenon reflects movement of retinol from the aqueous solution to a less polar and more restrictive environment within a protein binding site, and has been extensively used to monitor the binding of retinol to binding proteins, as described by Cogan et al., Eur. J. Biochem., 65:71-75 (1976); Ong et al., J. Biol Chem., 253:828-32 (1978); and Noy et al., Biochemistry, 30:6380-86 (1991), which are hereby incorporated by reference.
Recombinant retinol dehydratase (lμM) was titrated with retinol from a concentrated solution in ethanol (final ethanol concentration <2.0%). Binding was monitored by following the fluorescence enhancement of retinol (excitation--330 nm; emission--480 nm, open circles). The fluorescence contribution of free retinol was determined by titration with retinol in the absence of protein (FIG. 5B, open squares), analysed by linear regression analysis (FIG. 5B, dashed line) and subtracted from the titration data to give the corrected titration binding curve (FIG. 5B, closed circles). The data were fitted (FIG. 5B, solid line) using an equation derived from simple binding theory as described in Norris et al., Biochim Bioshys Acta, 1209:10-8 (1994), which is hereby incorporated by reference, to yield the number of binding sites (8%) and the equilibrium dissociation constant (Kd =9 nM).
The derived Kd should thus be considered an upper limit for the actual value. Nevertheless, it agreed with the Km, confirming retinol dehydratase has a high affinity binding site for free retinol.

| Molecule | activation of growth arrested cells (thymidine incorporation over 24 hours) ([1]; cells deprived of serum for 3 or 4 days) | entry of treated cells into the S phase ([1]; data not shown) | activation of resting cells ([1]; ≤500 ng/ml) | Vmax as compared to the native enzyme purified from Sf-21 [2] [%] | range of binding sites ([3]; n=3) | number of (high affinity) binding sites per molecule [3] [%] | number of (high affinity) binding sites per molecule ([3]; listed as recombinant enzyme) [%] | binding sites ([3]; titration curves, n=3) |
| --- | --- | --- | --- | --- | --- | --- | --- | --- |
| B1 | had no effect | did not enter the S phase | unable to activate | – | – | – | – | – |
| B2 | – | – | – | 10 | 0.06-0.08 | 8 | 7 | 0.07 |
